Patent US20040052799A1, “Nucleic acid and amino acid sequences relating to Helicobacter pylori for diagnostics and therapeutics” (Astra Aktiebolag, priority 1996, published 2004)

Tests used:
[1] = target: T1, H. pylori KDO-8-P synthase (Helicobacter pylori, UniProt Q9ZN55); assay: KDO-8-P synthase Assay 1, PEP utilization at 232 nm; assay type: biochemical; details: room temperature, 0.3 mM Ara5P, 0.3 mM PEP, pH 7.5
T1 construct: histidine tag; made in house
Protocol: The enzyme reaction was performed in a final volume of […] containing 0.3 mM Ara5P, 0.3 mM PEP and 0.1 M Tris-acetate pH 7.5. Reactions were started with […] of purified enzyme and were followed spectrophotometrically at 232 nm for 15 minutes. As a control, the mixture minus enzyme was measured. No decrease in the absorbance at 232 nm was observed when no enzyme was added. […] An extinction coefficient of 2840 M cm^−1 of PEP, was used to estimate that at room temperature, the activity of the enzyme was 0.7-mole/min/mg protein.

[2] = target: T1, H. pylori KDO-8-P synthase; assay: KDO-8-P synthase Assay 2, Pi release, molybdate-malachite green; assay type: biochemical; set-up: unit not given here; details: 25° C., 0.3 mM Ara5P, 0.3 mM PEP, 1.28 ug/ml enzyme
Protocol: Because of the potential interference of test compounds on the assay at 232 nm, a method was developed to measure the amount of Pi released in the reaction (Lanzatta et al. 1979).
This assay ws performed in a 96 well ELISA place, 50 ul assay mixtures containing 0,1 M Tris-acetate (pH 7.5), 0.3 mM Ara5P and 0.3 mM PEP, and 1.28 ug/ml of KDO-8-P synthase were incubated at 25° C. for different times. The reaction was then quenched with the addition of the molybdate-malachite green reagent. […] Under those conditions, the activity measured was 0.734-moles/min/mg protein, which was similar to the rate that was measured with the 232 nm assay.
When assayed in the presence of 0.02% Brij 35, the reaction proceeded faster. Under those conditions, the activity increased up to 1 mole/min mg protein.

[3] = target: T1, H. pylori KDO-8-P synthase; assay: Long term storage stability of KDO-8-P synthase
Protocol: The long term storage stability of the enzyme was tested over several conditions. […] Enzyme stored in 50% glycerol appeared to have less activity during extended storage at −20° C. (FIG. 9).

B1: KDO-8-P synthase: recombinant H. pylori KDO-8-P synthase, histidine-tagged fusion protein (SEQ ID NO: 6945) (protein, listed as Helicobacter pylori)
chain: MKTSNTKTPKPVLIAGPCVIESLENLRSIAIKLQPLANNERLDFYFKASFDKANRTSLESYRGPGLEKGLEMLQTIKDEFGYKILTDVHESYQASVAAKVADILQIPAFLCRQTDLIVEVSQTNAIVNIKKGQFMNPKDMQYSVLKALKTRDSSIQSPTYETALKNGVWLCERGSSFGYGNLVVDMRSLKIMREFAPVIFDATHSVQMPGGANGKSSGDSSFPPILPRAAAAVGIDGLFAETHIDPKNALSDGANMLKPDELEHLVTDMLKIQNLF
modifications: His tag; misc_feature (B) LOCATION 1...276; hypothetical: YES
activity of the enzyme [1]: 0.7 mole/min/mg protein
activity measured [2]: 0.734
activity after storage ([3]; 50 mM phosphate pH 8.0 and 1 mM PEP, −20° C., at least three weeks): no loss of activity
activity after storage ([3]; 50% glycerol, extended storage at −20° C., FIG. 9): less activity
